Assay results published in publication PMC11228805.

Target: gp41 (Q567K/A582T/A532V/I535M/L543Q/K574R/S752F/I756F) of the HIV-1AD8 Tri FPPR Bam Envs with K574R (HIV-1 AD8)
Experiment: gp120 shedding from virus particles

Substance	fold reduction of gp120 shedding against the Tri FPPR Bam Env [fold]	fold resistance to gp120 shedding (CD4mc+cold) against the Tri Bam Env [times]
gp120 (Q114E) of the HIV-1AD8 Tri Bam, Tri FPPR Bam and Tri FPPR Bam-K574R Envs (natural protein)	3.9	–
gp120 (Q114E/K59A) of the HIV-1AD8 Tri FPPR Bam-K59A and Tri FPPR Bam-K59A/K574R Envs (natural protein)	–	40
